Where two headings read alike, the source gives them in different places.
Columns and labels:
SS-L2-Aferr = test: BLI, 1:1 fit
SS[change] = test: BLI, 1:1 fit
[1] = molecular target: MERS [change]\u0394RBD antigen (MERS-CoV EMC/2012); test: BLI, 1:1 fit
[2] = molecular target: MERS SS antigen (MERS-CoV EMC/2012) (UniProt K9N5Q8); test: BLI, 1:1 fit
[3] = molecular target: MERS SS antigen (MERS-CoV EMC/2012) (UniProt K9N5Q8)
[4] = molecular target: MERS SS antigen (MERS-CoV EMC/2012) (UniProt K9N5Q8); remark: listed apart in the source

CC40.8 (antibody)
Kd (SS-L2-Aferr): 312 pM
kon (SS-L2-Aferr): 229000 M⁻¹ s⁻¹
Kd (SS[change]): 1690 pM
kon (SS[change]): 205000 M⁻¹ s⁻¹

G4 (antibody)
Kd [1]: 6.71 pM
kon [1]: 67400 M⁻¹ s⁻¹
Kd (SS-L2-Aferr): 2.38 pM
kon (SS-L2-Aferr): 205000 M⁻¹ s⁻¹
Kd (SS[change]): 2.79 pM
kon (SS[change]): 175000 M⁻¹ s⁻¹
Kd [2]: 8.1 pM
kon [2]: 52200 M⁻¹ s⁻¹
maximum binding [3]: 0.43 nm
Kd [4]: 550 pM

— patent US20260069679A1
